In US20250289866A1 (published 2025):

Biological target: T1, NDC80 (NDC80 CT antigen; peptide NDC80-330) peptide on HLA-A*02:01 (human)
T1 peptide: GLNEEIARV
Experiment: multimer staining

binding result: recognises
B1: NDC80-330 specific TCR (TCR, V domains shown)
Valpha: EDQVTQSPEALRLQEGESSSLNCSYTVSGLRGLFWYRQDPGKGPEFLFTLYSAGEEKEKERLKATLTKKESFLHITAPKPEDSATYLCAVQAGSSASKIIFGSGTRLSIRP
Vbeta: DAGVTQSPTHLIKTRGQQVTLRCSPKSGHDTVSWYQQALGQGPQFIFQYYEEEERQRGNFPDRFSGHQFPNYSSELNVNALLLGDSALYLCASSLSGGIYEQYFGPGTRLTVT
